Laboratory results as given in patent US20250179195A1 (LES LABORATOIRES SERVIER, published 2025).
Where a chain is given by its changes, count along the chain named. Names may count otherwise.

B1: anti-FLT3 antibody 17566 (antibody, human IgG1, kappa, L234A L235A, V domains shown)
VH: QVTLKESGPVLVKPTETLTLTCTVSGFSFNNARMGVNWIRQPPGKALEWLAHIFSNDEKSYSTSLKSRLTISKDISKSQVVLTMTNMDPVDTATYYCARIVGYGSGWRLLGDYWGQGTLVTVSS
VL: AIQMTQSPSSLSASVGDRVTITCRASQGITNDLGWYQQKPGKAPKLLIYAASSLQSGVPSRFSGSGSGTDFTLTISSLQPEDFATYYCLQDYNYPWTFGQGTKVEIKR
notes: Human IgG1-LALA (L234A/L235A) / kappa, germline-corrected variable domains
B2: anti-FLT3 antibody 17526 (antibody, human IgG1, kappa, L234A L235A, V domains shown)
VH: QVTLKESGPVLVKPTETLTLTCTISGFSLGNARMGVSWIRQPPGKALEWLAHIFSNDEKSYSTSLKSRLTISKDTSKSQVVLTMTNMDPVDTATYYCARIVGYVDWLLPFDYWGQGTLVTVSS
VL: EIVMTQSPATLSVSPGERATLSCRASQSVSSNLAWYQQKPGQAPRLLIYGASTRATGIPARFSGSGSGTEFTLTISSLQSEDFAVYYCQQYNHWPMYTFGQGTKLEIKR
notes: Human IgG1-LALA / kappa
B3: anti-FLT3 antibody 17667 (antibody, human IgG1, kappa, L234A L235A, V domains shown)
VH: B2 VH with I24V, G30S, K59R, T63P, D74G
VL: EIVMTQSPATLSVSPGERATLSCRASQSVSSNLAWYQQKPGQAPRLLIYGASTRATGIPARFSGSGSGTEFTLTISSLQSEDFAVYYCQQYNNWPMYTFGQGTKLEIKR
notes: Human IgG1-LALA / kappa
B4: anti-FLT3 antibody 17679 (antibody, human IgG1, kappa, L234A L235A, V domains shown)
VH: QVQLQESGPGLVKPSQTLSLTCTVSGGSISSGGYYWSWIRQHPGKGLEWIGYIYYSGRTNYNPSLKSRVTISEDTSKNQFSLKVSSVTAADTAVYYCARDQDGSGWYFDYWGQGALVTVSS
VL: EIVLTQSPATLSLSPGERATLSCRASQSVSSYLAWYQQKPGQAPRLLIYDASNRATGIPARFSGSGSGTDFTLTIRSLEPEDFAVYYCQQRSNWWTFGQGTKVEIKR
notes: Human IgG1-LALA / kappa
B5: anti-FLT3 antibody 17543 (antibody, human IgG1, kappa, L234A L235A, V domains shown)
VH: QVTLKESGPVLVKPTETLTLTCTVSGFSLINARMGVTWIRQPPGKALEWLAHIFSNDEKSYSTSLKSRLTISKDTSKSQVVLTMTNMDPVDTATYYCARIPGYSRGWDYYYYGMDVWGQGTMVTVSS
VL: B1 VL with A1D, T30R, L46R, S53T, D70E, D91H, Y92N, N93S
notes: Human IgG1-LALA / kappa
B6: anti-FLT3 antibody 17497 (antibody, human IgG1, kappa, L234A L235A, V domains shown)
VH: QVQLQESGPGLVKPSGTLSLTCAVSGGSISSTNWWSWVRQPPGKGLEWIGEISHRGSTNYNPSLKSRVTISVDKSKNQFSLKLSSVTAADTAVYYCARDPEMTLYYYYGMDVWGQGTTVTVSS
VL: B1 VL with A1D, Q27R, T30R, L46R, D70E, D91H, Y92N, N93S, W96L, Q100G
notes: Human IgG1-LALA / kappa

Each binder was assayed against T1, human FLT3 expressed on cells (human, UniProt P36888 27-993) (assay: flow cytometry (iQue Screener PLUS) on CHO-S cells transiently expressing human FLT3; AF647 anti-human IgG (H+L) secondary; GeoMean RL1-H; 12-point titration).
T1 construct: endogenous on EOL-1 cells and primary CD34+ stem cells in the functional rows; also called CD135
Method: (§1) The anti-FLT3 antibodies were incubated with the hamster CHO-S cell line transiently expressing human, cynomolgus or mouse FLT3 for 30 minutes at 4° C. The cells were washed twice and subsequently incubated for an additional 20 minutes with AF647-conjugated secondary anti-human IgG (H+L) antibody. After the washing step, antibody binding was detected using the high-throughput flow cytometer iQue Screener PLUS (Sartorius) measuring the GeoMean of AF647 signal in each well. Every concentration was assayed in triplicate and a 12-point titration curve was generated for each antibody.

Question: Does B1 bind?
Answer: binds

Question: Does B2 bind?
Answer: binds

Question: Does B3 bind?
Answer: binds

Question: Does B4 bind?
Answer: binds

Question: With B5 as the binder, how does the “EC50 (read off the curve)” value read?
Answer: ~0.03 µg/mL

Question: Does B6 bind?
Answer: binds

Each binder was assayed against T2, mouse FLT3 expressed on CHO-S cells (mouse, UniProt Q00342 28-1000) (assay: flow cytometry (iQue Screener PLUS) on CHO-S cells transiently expressing mouse FLT3; AF647 anti-human IgG (H+L) secondary; GeoMean RL1-H; 12-point titration).
T2 construct: whole, on cells
T2 sequence (Q00342 28-1000): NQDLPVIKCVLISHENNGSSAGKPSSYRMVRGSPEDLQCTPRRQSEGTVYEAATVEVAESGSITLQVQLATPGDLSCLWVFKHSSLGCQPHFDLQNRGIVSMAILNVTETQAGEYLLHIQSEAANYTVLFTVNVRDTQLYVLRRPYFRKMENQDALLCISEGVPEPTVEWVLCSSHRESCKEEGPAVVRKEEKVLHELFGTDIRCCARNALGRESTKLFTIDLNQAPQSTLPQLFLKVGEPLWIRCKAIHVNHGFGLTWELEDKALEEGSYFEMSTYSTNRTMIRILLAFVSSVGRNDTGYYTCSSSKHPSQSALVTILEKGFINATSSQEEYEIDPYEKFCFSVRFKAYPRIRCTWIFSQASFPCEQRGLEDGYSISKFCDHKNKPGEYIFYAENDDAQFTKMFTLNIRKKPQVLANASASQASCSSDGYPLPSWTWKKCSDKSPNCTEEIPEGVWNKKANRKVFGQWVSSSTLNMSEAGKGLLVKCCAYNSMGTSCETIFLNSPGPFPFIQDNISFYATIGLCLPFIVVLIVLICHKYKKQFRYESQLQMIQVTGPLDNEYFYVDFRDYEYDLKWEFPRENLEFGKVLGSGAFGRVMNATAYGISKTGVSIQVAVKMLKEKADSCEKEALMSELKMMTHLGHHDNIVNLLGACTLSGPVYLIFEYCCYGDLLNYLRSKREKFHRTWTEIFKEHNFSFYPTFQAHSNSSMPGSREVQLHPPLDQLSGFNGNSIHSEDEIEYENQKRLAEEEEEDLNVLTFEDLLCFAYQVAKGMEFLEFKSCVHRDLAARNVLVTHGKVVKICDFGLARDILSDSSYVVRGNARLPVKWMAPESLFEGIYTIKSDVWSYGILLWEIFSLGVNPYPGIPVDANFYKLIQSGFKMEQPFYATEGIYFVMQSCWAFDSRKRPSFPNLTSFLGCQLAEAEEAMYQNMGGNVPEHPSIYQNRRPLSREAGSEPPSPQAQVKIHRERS
Method: as §1

Question: For B6, which “EC50 (read off the curve)” value is on record?
Answer: ~0.01 µg/mL

Each binder was assayed against T2, mouse FLT3 expressed on CHO-S cells (assay: flow cytometry (iQue Screener PLUS) on CHO-S cells transiently expressing mouse FLT3; AF647 anti-human IgG (H+L) secondary; GeoMean RL1-H).
Method: as §1

Question: Does B1 bind?
Answer: no binding

Question: Does B2 bind?
Answer: no binding

Question: Does B3 bind?
Answer: no binding

Question: Does B4 bind?
Answer: no binding

Question: Does B5 bind?
Answer: no binding

These binders were tested against T3, cynomolgus FLT3 expressed on CHO-S cells (cynomolgus, UniProt A0A2K5VQ48 27-993) (assay: flow cytometry (iQue Screener PLUS) on CHO-S cells transiently expressing cynomolgus FLT3; AF647 anti-human IgG (H+L) secondary; GeoMean RL1-H; 12-point titration).
T3 construct: whole, on cells
Method: as §1

Question: Which “EC50 (read off the curve)” value does the source give for B1 here?
Answer: ~0.03 µg/mL

Question: How did the “EC50 (read off the curve)” value turn out when B2 was run?
Answer: ~0.02 µg/mL

Question: Which “EC50 (read off the curve)” value does the source give for B3 here?
Answer: ~0.02 µg/mL

Question: How did the “EC50 (read off the curve)” value turn out when B4 was run?
Answer: ~0.04 µg/mL

Question: How did the “EC50 (read off the curve)” value turn out when B5 was run?
Answer: ~0.04 µg/mL

Question: For B6, which “EC50 (read off the curve)” value is on record?
Answer: ~0.01 µg/mL

What follows are binders tested against T4, recombinant human FLT3 ECD his-tagged fusion receptor (Sino Biological) (human, UniProt P36888 27-543) (assay: bio-layer interferometry (Octet QK384); FLT3-his immobilized on anti-penta-HIS (HIS1K) biosensor; 500 nM antibody, 600 s association).
T4 construct: Bought protein; also called FLT3-his; His-tagged FLT3; not shown: His tag

Question: Does B1 bind?
Answer: binds

Question: Does B2 bind?
Answer: binds

Question: Does B3 bind?
Answer: binds

Question: Does B4 bind?
Answer: binds

Question: Does B6 bind?
Answer: binds
